Read-outs that look alike come from different tables or passages of the source.
Assays:
[1] = target: plasma-derived human complement factor H (human) (UniProt P08603)
human C3d (human) = human C3d (human) (UniProt P01024); test: SPR; C3b (~250 RU) or C3d (~70 RU) amine coupled to adjacent flow cells of a Biacore C1 chip; FH preincubated with or without a 2-fold molar excess of PspCN injected (90 s, 30 μl/min, 400 s dissociation); 1:1 binding model
human C3b (human) [2] = target: human C3b (human) (UniProt P01024); test: as above
Sequence of human C3b (human) (P01024 23-667, chain 1 of 2): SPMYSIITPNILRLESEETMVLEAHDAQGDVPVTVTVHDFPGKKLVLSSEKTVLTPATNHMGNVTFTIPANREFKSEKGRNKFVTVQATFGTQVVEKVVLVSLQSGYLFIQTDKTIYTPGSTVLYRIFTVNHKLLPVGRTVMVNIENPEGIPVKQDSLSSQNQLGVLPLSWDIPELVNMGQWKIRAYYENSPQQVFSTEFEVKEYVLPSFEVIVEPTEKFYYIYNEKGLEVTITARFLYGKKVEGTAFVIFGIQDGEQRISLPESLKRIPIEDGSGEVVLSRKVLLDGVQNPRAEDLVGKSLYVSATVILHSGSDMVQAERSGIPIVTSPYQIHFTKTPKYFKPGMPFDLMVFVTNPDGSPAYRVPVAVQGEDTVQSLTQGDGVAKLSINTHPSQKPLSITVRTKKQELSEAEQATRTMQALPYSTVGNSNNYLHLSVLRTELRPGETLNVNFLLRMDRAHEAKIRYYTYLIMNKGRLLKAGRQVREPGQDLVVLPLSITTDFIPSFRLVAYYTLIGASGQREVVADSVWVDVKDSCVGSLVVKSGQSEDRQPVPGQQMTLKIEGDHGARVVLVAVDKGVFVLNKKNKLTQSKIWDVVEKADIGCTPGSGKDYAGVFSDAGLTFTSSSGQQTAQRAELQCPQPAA
Sequence of human C3b (human) (P01024 749-1663, chain 2 of 2): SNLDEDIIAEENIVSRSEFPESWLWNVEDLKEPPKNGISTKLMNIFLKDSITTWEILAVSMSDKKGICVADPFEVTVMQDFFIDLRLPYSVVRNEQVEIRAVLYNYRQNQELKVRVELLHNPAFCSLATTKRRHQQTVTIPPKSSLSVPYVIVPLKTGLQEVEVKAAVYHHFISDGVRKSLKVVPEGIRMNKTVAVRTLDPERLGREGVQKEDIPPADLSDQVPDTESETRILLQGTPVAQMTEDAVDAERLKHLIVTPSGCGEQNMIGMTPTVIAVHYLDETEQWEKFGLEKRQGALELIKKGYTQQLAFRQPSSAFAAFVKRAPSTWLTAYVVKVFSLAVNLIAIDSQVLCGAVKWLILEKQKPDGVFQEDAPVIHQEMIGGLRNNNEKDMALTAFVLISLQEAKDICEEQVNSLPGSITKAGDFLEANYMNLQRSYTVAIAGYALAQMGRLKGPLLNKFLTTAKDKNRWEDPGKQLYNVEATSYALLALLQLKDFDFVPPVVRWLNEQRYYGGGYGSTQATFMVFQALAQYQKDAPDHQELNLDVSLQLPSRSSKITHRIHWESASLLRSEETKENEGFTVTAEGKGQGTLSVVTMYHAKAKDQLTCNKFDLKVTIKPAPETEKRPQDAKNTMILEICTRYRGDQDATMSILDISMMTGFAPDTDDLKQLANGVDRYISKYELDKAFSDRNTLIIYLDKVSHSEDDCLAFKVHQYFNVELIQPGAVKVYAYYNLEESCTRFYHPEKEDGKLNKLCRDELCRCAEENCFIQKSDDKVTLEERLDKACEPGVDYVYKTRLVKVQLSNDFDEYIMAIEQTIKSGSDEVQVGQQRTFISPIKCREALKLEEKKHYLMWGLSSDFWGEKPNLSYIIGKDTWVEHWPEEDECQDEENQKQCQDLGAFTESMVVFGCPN

human C3b (human) [3] = target: human C3b (human) (UniProt P01024); test: as above; remark: listed apart in the source
C3b C3b (Homo sapiens) = C3b C3b (Homo sapiens) (UniProt P01024); conditions: cited from earlier work
Sequence of C3b C3b (Homo sapiens) (P01024 566-670): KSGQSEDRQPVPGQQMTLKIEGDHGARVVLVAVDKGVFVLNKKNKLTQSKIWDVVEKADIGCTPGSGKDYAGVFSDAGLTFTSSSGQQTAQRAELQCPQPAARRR

C3d C3d (Homo sapiens) = C3d C3d (Homo sapiens) (UniProt P01024); conditions: cited from earlier work
Sequence of C3d C3d (Homo sapiens) (P01024 1002-1303): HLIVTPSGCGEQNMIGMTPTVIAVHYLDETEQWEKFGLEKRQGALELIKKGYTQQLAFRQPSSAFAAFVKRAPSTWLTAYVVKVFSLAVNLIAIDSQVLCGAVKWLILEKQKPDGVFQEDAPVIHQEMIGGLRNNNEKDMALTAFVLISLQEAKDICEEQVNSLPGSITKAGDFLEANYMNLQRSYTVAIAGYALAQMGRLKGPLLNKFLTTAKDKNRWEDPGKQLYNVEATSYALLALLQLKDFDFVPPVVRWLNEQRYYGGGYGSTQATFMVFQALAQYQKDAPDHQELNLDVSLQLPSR

[4] = target: His6-SUMO-tagged D39 PspC residues 37-140 (Streptococcus pneumoniae D39); test: SPR; PspC-derived proteins immobilised via N-terminal His6-SUMO tags on a Ni2+-loaded Biacore NTA chip (~150 RU); FH, rFH or rFH fragments flowed over (180 s, 100 μl/min, 1500 s dissociation); 25°C; 10 mM HEPES, 150 mM NaCl, 0.05% P20, pH 7.4, 50 μM EDTA; 1:1 binding model; equilibrium method for FH 8–9
[5] = target: (D39)PspCN, D39 PspC residues 37-140 after removal of the His6-SUMO tag (Streptococcus pneumoniae D39); test: SEC-MALS; 4.6 μM in PBS of FH, PspCN or a 1:1 complex; Superose12 10/300 GL column, 0.4 ml/min

Sequence of human C3d (human) (P01024 1002-1303): as above

Q: With “(D39)PspCN, D39 PspC residues 37-140 after removal of the His6-SUMO tag (domain or fragment)” as the substance, how does the inhibition of acidified-serum lysis of PNH-like (AET-treated) human erythrocytes by increasing concentrations of (D39)PspCN; FH of the serum [1] read?
A: 28 nM

Q: For “(D39)PspCN:FH complex (plasma-derived FH) (from UniProt P08603 19-1231)”, which Kd (human C3d (human)) is on record?
A: 2300 nM

Q: And the Kd (human C3b (human) [2])?
A: 160 nM

Q: What about the ratio of KD values for FH versus FH-PspCN (human C3b (human) [2]) of the same substance?
A: 2.04

Q: With “(D39)PspCN:FH(D1119G) complex (from UniProt P08603 19-1231)” as the substance, how does the Kd (human C3b (human) [3]) read?
A: 330 nM

Q: And the Kd (human C3b (human) [2])?
A: 320 nM

Q: Which Kd (human C3d (human)) does the source give for “(D39)PspCN:rFH complex (from UniProt P08603 19-1231)” here?
A: 2200 nM

Q: And the Kd (human C3b (human) [2])?
A: 280 nM

Q: With “(Tigr4)PspC_(37–179):FH complex (from UniProt P08603 19-1231)” as the substance, how does the Kd (human C3d (human)) read?
A: 1200 nM

Q: And the Kd (human C3b (human) [2])?
A: 280 nM

Q: Which results are given for “Complement factor H CCP 19-20 (from UniProt P08603)”?
A: Kd (C3b C3b (Homo sapiens)): 2000 nM; Kd (C3d C3d (Homo sapiens)): 2000 nM

Q: Which Kd [4] does the source give for FH 8–9 (domain or fragment) here?
A: 30 nM

Q: With FH 8–15 (domain or fragment) as the substance, how does the Kd [4] read?
A: 1 nM

Q: For “plasma-derived human complement factor H (from UniProt P08603 19-1231) (natural protein)”, which stoichiometry N [5] is on record?
A: 1 FH:PspCN

Q: What about the dissociation over 30 min (off-rate) (% over 30 min) [4] of the same substance?
A: < 0.2

Source: publication PMC4635569
